{"source": "patent US10100341B2", "about": "“Tailored oils produced from recombinant oleaginous microorganisms” (Corbion Biotech, Inc., priority 2011, dated 2018)", "tested_on": "Prototheca moriformis (UTEX 1435)", "test": "cDNA abundance by real-time RT-PCR under nitrogen depletion", "type": "cell-based", "conditions": "after 24 hours of culture in low nitrogen medium", "experimental": "A cDNA library was generated from Prototheca moriformis (UTEX 1435) using standard techniques. The Prototheca moriformis cells were grown for 48 hours under nitrogen replete conditions. […] After about 24 hours in culture, the nitrogen supply in the media was completely depleted. The collected samples were immediately frozen using dry ice and isopropanol. Total RNA was subsequently isolated from the frozen cell pellet samples and a portion from each sample was held in reserve for RT-PCR studies. The rest of the total RNA harvested from the samples was subjected to polyA selection. Equimolar amounts of polyA selected RNA from each condition was then pooled and used to generate a cDNA library in vector pcDNA 3.0 (Invitrogen). Roughly 1200 clones were randomly picked from the resulting pooled cDNA library and subjected to sequencing on both strands. Approximately 68 different cDNAs were selected from among these 1200 sequences and used to design cDNA-specific primers for use in real-time RT-PCR studies. RNA isolated from the cell pellet samples that were held in reserve was used as substrate in the real time RT-PCR studies using the cDNA-specific primer sets generated above. This reserved RNA was converted into cDNA and used as substrate for RT-PCR for each of the 68 gene specific primer sets. […] As discussed in the specification, nitrogen depletion/limitation is a known inducer of lipogenesis in oleaginous microorganisms. Fold increase refers to the fold increase in cDNA abundance after 24 hours of culture in low nitrogen medium."}
{"molecule": "Aat02-Amino acid transporter 02 promoter/5′UTR: putative nitrogen-regulated promoter/5′UTR, SEQ ID NO: 63 (nucleic acid, listed as Prototheca moriformis) DNA: AGAGAGCGGAGGTGGGGTTGTGAGGTGGGGTTGCTGACCAGGAGCTCGCGTCGCCGAGCGCGACTCGCACACGGTCCAGTTACCCCCCCCTCCGCCCAAACGCAAGCCTCCCATCTTGATGCCTTTCCGGCCACCTATACTATTTCTTAGTTCGCTGTAACATCCAGACCGTCCTGAATAATAACAATGCCCTGTGTCAAGTGCATTCCTAAAAAAATTCTGTCCCAACCAACAATCCCACCTGAAATACCACCAGCCCTGCCCAGTACACTCTTCCAATACCATCTCCCTACCTCCACGCGCAAGCGACCCCCATGCGCGACCAGGCTCGAAAGTGATTTATGACTTGAGACGAGCGAGTGGCGGCGCGGTCGACTGCCTTTTCATCACGTGCCGTACGTCGGCGACCGCTAGGGCTTTGCACGGCAACGCACGGCTTCGCCAACCCGACCAGCCAGGACCTCGACTACTCTACCGCGAATTCGCCTCAAGAAGTCGCCAAATGTGCCATACACCATTCCTTACAGCACTGTTCAAACTTGATGCCAATTTTGACATTCGGGTTGCTCGTTGGCTGCGCCCACATCGGCCGTGAGTGCAGCAGGCGGGATCGGACACGGAGGACGCGGCGTCACGCCCCGAACGCAGCCCGTAACTCTACATCAACACGACGTGTTGCGTAATCCCGCCCGGCTGCGCATCGTGCCAACCCATTCGCGATGGATGGTCGGAAAATGGTGTGCCAACTGCCCTGAGGGAGGCTCTCGCGAAACGGGCACGTCCCTGAAACCGAAACTGTGGCCTTGTCGTCGGCCACGCAAGCACGTGGACCCTAAACACCAAGAAAATCAGTAAACAAGGTTGACATCCTCTACGGGCGAATTGTTTGCCCAACCCTTCATCGCACACTGCCATTATAATGCATCTAGCTCGGCGACAAGTTTAGAAAAGGCAGGCTGCATTGTTCCATTTCGCCGTGGCGGCGTGGGTGCCCATTTTACGAGGTTTGGGCTCCCGGGCAGCGACCGAGCCAGGTCGAGTCCCTCTCGCCCGTCGACAATGTTGCGAACCCCACAAGCGGCTAACAACAACTTGATGGTACCTGTACACTGCCAATTCCTTCTTCCCCGGCCGAGGTTTACACGTGATGGCCATGGCTTCGCATTCAGGCCGACTTCCCATTCCGACTTTCCAGAGGGTCCGCGGACGCTGGGGGTTGGCTGCCTGAGGCCCACCCTTTGTTCCCCGCGTCCCGACAAACACAATTGCGTTACATAAGGGGGAGCCGCCCCCGTTCAGAGTGCAGAAATCTTTCACTATATTTTCCAGTCGTCAGCGAAATCAAGT", "values": [{"measurement": "Fold increased (cDNA abundance)", "result": 6.5}]}
